{"source": "patent US20200230115A1", "about": "“METHODS OF TREATING INFLUENZA-ASSOCIATED VIRAL PNEUMONIA” (priority 2017, published 2020)", "molecules": {"B1": {"name": "KGF: keratinocyte growth factor, a potent pulmonary epithelial mitogen; cognate receptor FGFR2 (protein, UniProt P21781 32-194, looked up)", "Fibroblast growth factor 7": "CNDMTPEQMATNVNCSSPERHTRSYDYMEGGDIRVRRLFCRTQWYLRIDKRGKVKGTQEMKNNYNIMEIRTVAVGIVAIKGVESEFYLAMNKEGKLYAKKECNEDCNFKELILENHYNTYASAKWTHNGGEMFVALNQKGIPVRGKKTKKEQKTAHFLPMAIT"}}, "key": {"AECII [1]": {"test_system": "AECII", "assay": "Flow cytometry of dispersed lung cells (pro SP-C, Ki67, IAV-NP) after in vivo treatment", "set-up": "species or system DBA/2J mice"}, "AECII [2]": {"test_system": "AECII", "assay_type": "cell-based, mice"}, "IL-6, TNFα, KC, MCP-1": {"test_system": "IL-6, TNFα, KC, MCP-1", "assay_type": "in vivo"}, "cytokines and chemokines": {"test_system": "cytokines and chemokines", "assay": "Multiplex analysis of inflammatory mediators in BALF and serum", "assay_type": "in vivo, DBA/2J mice"}}, "note": "Where two headings read alike, the source gives them in different places.", "data": [{"molecule": "B1", "values": [{"measurement": "fold increase in percentage of AECII proliferating vs PBS", "setting": "AECII [1]; 48 h after i.t. KGF 5 mg/kg", "result": "more than sevenfold"}, {"measurement": "percentage of AECII proliferating based on Ki67 staining", "setting": "AECII [1]; 48 h after i.t. KGF 5 mg/kg, PBS-only mice 2%", "result": 14, "unit": "%"}, {"measurement": "percentage of AECII infected (IAV-NP), time course", "setting": "AECII [1]; KGF 24, 48 or 120 h before 50,000 particles i.t. IAV, peak", "result": "peaked in dispersed lung cells from mice that had been pretreated with KGF 48 h before infection"}, {"measurement": "mean channel fluorescence of IAV-NP (viral burden per cell), time course", "setting": "AECII [1]; KGF 24, 48 or 120 h before IAV, peak", "result": "peaking in cells harvested at 48 h after KGF"}, {"measurement": "percentage of AECII infected (IAV-NP)", "setting": "AECII [1]; KGF 120 h before inoculum", "result": "remained near PBS control levels"}, {"measurement": "mean channel fluorescence of IAV-NP (viral burden per cell)", "setting": "AECII [1]; mouse, in vivo", "result": "remaining close to PBS control levels"}, {"measurement": "percentage of AECII infected vs PBS control mice", "setting": "AECII [1]; mouse, in vivo", "result": "significantly greater"}, {"measurement": "percentage of AECII proliferating (Ki67)", "setting": "AECII [1]; mouse, in vivo", "result": "remaining similar to PBS control levels"}, {"measurement": "percentage of AECII proliferating (Ki67), time course", "setting": "AECII [1]; mouse, in vivo", "result": "peaking in cells isolated from mice that had been dosed with KGF 48 h before PBS challenge"}, {"measurement": "MCF per cell for IAV-NP", "setting": "AECII [2]", "result": "returning to baseline"}, {"measurement": "mean fluorescence intensity of IAV-NP staining, Ki67 high vs Ki67 low", "setting": "AECII [2]", "result": "greater in the Ki67 high (proliferating) than the Ki67 low (nonproliferating) population"}, {"measurement": "peak in expression of viral protein M1 (Western blot)", "setting": "AECII [2]", "result": "occurred in AECII that were isolated 48 h after in vivo KGF challenge"}, {"measurement": "percentage of AECII infected after ex vivo IAV incubation", "setting": "AECII [2]", "result": "remained near baseline levels"}, {"measurement": "percentage of AECII infected after ex vivo IAV incubation, time course", "setting": "AECII [2]", "result": "highest in cells harvested 48 h after in vivo KGF treatment"}, {"measurement": "percentage of AECII proliferating (Ki67)", "setting": "AECII [2]", "result": "returned to near baseline"}, {"measurement": "percentage of AECII proliferating (Ki67), time course", "setting": "AECII [2]", "result": "peaked at 48 h"}, {"measurement": "MCF per cell for IAV-NP, time course", "setting": "AECII [2]; ex vivo IAV 18 h, peak", "result": "peaking in cells harvested at 48 h post KGF"}, {"measurement": "TNFα increase, KGF alone vs naive controls", "setting": "IL-6, TNFα, KC, MCP-1; KGF treatment alone, 48 and 72 h postchallenge", "result": "two- to threefold increases"}, {"measurement": "cytokine responses, KGF alone (other than TNFα)", "setting": "IL-6, TNFα, KC, MCP-1; KGF treatment alone, no IAV, any point", "result": "no effect"}, {"measurement": "enhancement of IAV-induced IL-6, TNFα, KC, MCP-1 levels", "setting": "IL-6, TNFα, KC, MCP-1; whole-lung homogenates, 48 and 72 h, KGF coadministration with IAV", "result": "10-50%"}, {"measurement": "BAL IP10, MCP-5, TNFα, MIG, IL-6, MCP-1, G-CSF, M-CSF, IFNγ responses relative to PBS/IAV", "setting": "cytokines and chemokines; BALF, 72 h after IAV with 5 mg/kg KGF i.t.", "result": "modestly augmented"}, {"measurement": "serum inflammatory response to IAV (especially IP10, TNFα, MCP-1, IFNγ)", "setting": "cytokines and chemokines; serum, IAV with 5 mg/kg KGF i.t.", "result": "augmented the inflammatory response"}]}]}
